Measured values as given in the nanobody polyreactivity screen of Harvey et al. (2022).

Assay: yeast display, Sf9 membrane polyspecificity reagent, FACS + sequencing; frameworks hold sequencing errors
Procedure, shortened: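 Nanobodies from a synthetic yeast display library (Saccharomyces cerevisiae BJ5465), induced 36–48 hours with galactose, were stained 1 hour at 4 °C with 10% biotinylated, detergent-solubilized Sf9 membrane reagent, enriched on streptavidin microbeads, then FACS-sorted. Anti-HA (expression) and streptavidin (reagent binding) fluorescence set low and high (top ~1%) gates. Polyreactivity labels come from the gate of origin. Genes were colony-PCR amplified, MiSeq 2 × 250 sequenced and filtered by CDR length.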

Sequence	polyreactivity (PSR sort gate)
QVQLVESGGGLVQAGGSLRLSCAASGFIFRYYAMGWYTQAPGKERELVAAISYSGGSTYYADSVKGRFTITRDNAKNTVYLQMNSLKPEDTAVYYCAAVTVKSNQYLYYVYPYGMGYWGQGTQVTVSS	high polyreactivity
QVQLVESGGGLVQAGGSLRLSCAASGFIFRYYTMGWYRQAPGKERELVASISRRGGSTYYADSVKGRFTISRDNAKNIVYVQMNSLKEVDTAVYYCNADRRLGDGYWGQGTQVTVSS	high polyreactivity
QVQLVESGGGLVQAGGSLRLSCAASGFIFRYYTMGWYRQAPGKERELVATITSGGSTYYADSVKGRFTISRDNAKNTVYLQMNSLKPEDTAVYYCAKVRDVLWRFNYWGQGTQVTVSS	high polyreactivity
QVQLVESGGGLVQAGGSLRLSCAASGFIFRYYTMGWYRQAPGKERELVAVITSGGTTYYADSVKGRFTISRDNAKNTVYLQMNSLKPEDTAGAADQWTIHRWATYGYWGQGTQVTVSS	low polyreactivity
QVQLVESGGGLVQAGGSLRLSCAASGFIFRYYTMGWYRQAPGKERELVAVITSGGTTYYADSVKGRFTISRDNAKNTVYLQMNSLKPEDTAVYYCAADTFYIYEDVLYVQGDYYWGQGTQVTVSS	low polyreactivity
QVQLVESGGGLVQAGGSLRLSCAASGFIFSFYAMGWYRQAPGKERELVAAITSSGATTYYADSVKGRFTISRDNAKNTVYLQMNSLKPEDTAVYYCNAVYRRDTGYYRYYYWGQGTQVTVSS	high polyreactivity
QVQLVESGGGLVQAGGSLRLSCAASGFIFSGNAMGWYRQAPGKARELVAAISWSGTSTFYADSVKGRFTISRDNAKNTVYLQMHSLIPEDTAVYYCAAETYYSYWYRPHYDYWGQGTQVTVSS	low polyreactivity
QVQLVESGGGLVQAGGSLRLSCAASGFIFSGNAMGWYRQAPGKERELVAAITWSDGSTYYADSVKGRFTISRDNAKNTVYFQINSLKPEDSAVYYCAVGALQITRYDSWGQGTQVTVSS	low polyreactivity
QVQLVESGGGLVQAGGSLRLSCAASGFIFSGYAMGWYRQAPGKERELVATISGSGGSTYYADSVKGRFTISRDNAKNTVYLQMNSLKPEDTAVYYCNALYASSVRHKVTYDYWGQGTQVTVSS	high polyreactivity
QVQLVESGGGLVQAGGSLRLSCAASGFIFSHYAMGWYRQAPGKERELVAAISWSGDSTYYADSVKGRFTLSRDNAKNTVDLQMNSLKPEDTAVYYCNAVYFWVRYLKFLEFGYWGQGTQVTVSS	high polyreactivity
QVQLVESGGGLVQAGGSLRLSCAASGFIFSKYAMGWYRQAPGKERELVAAITGGGSTNYADSVKGRFTISRDNAKNTVYLQMTSLKPEDTAVYYCAARGFTLTDYDRDLYYWGQGTQVTVSS	low polyreactivity
QVQLVESGGGLVQAGGSLRLSCAASGFIFSLYAMGWYRQAPGKERELVAAINWNGGRTYYADSVKGRFTISRDNAKNTVYLQMNSLKPEDTAVYYCAKLGYLGLDYWGQGTQVTVSS	high polyreactivity
QVQLVESGGGLVQAGGSLRLSCAASGFIFSLYAMGWYRQAPGKERELVAAISKRGGSTNYADSVKGRFTISRDNAKNTVFLQMNSLKPEDTAVYYCAKARPGFLYDHWGQGTEVTVSS	high polyreactivity
QVQLVESGGGLVQAGGSLRLSCAASGFIFSQYAMGWYRQAPGTERELVAVISKSSGSTYYADSVKGRFTISCDNAKNTVYLQMNSLKPEDTAVYYCNRRYYYRTYDYWGQGTQVTVSS	high polyreactivity
QVQLVESGGGLVQAGGSLRLSCAASGFIFSRNAMGWYRQAPGKERELVAAISLRGGSTYYADSVKGRFTISRDNAKNTVYLQMNSLKPEDTAVYYCAADSVLTPYDYWVQGTQVTVSS	low polyreactivity
QVQLVESGGGLVQAGGSLRLSCAASGFIFSRNAMGWYRQAPGKERELVAAISSTGGITYYADSVKGRFTISRDNAKITVYLQMNSLKPEDTAVYYCAAGFYGYARHSWYKYWGQGTQVTVSS	high polyreactivity
QVQLVESGGGLVQAGGSLRLSCAASGFIFSSNAMGWYRQAPGKERELVAAITSSGGGTYYADSVKGRFTISRDNAKNTVYLQMNSLKPEDTAVYYCNAAYKYAIPSYGYWGQGTQVTVSS	low polyreactivity
QVQLVESGGGLVQAGGSLRLSCAASGFIFSSYAMGWYRQAPGKEMELVAAISWSGGRTYYADPVKGRFTISRDNAKNTVYLQLNSLKPEDTAVYYCNARYPYPYWYTSYDYWGQGTQVTVSS	high polyreactivity
QVQLVESGGGLVQAGGSLRLSCAASGFIFSSYAMGWYRQAPGKERELVARISLSGGSTFYADSVKGRFTISRDNAKNTVYLQMNSLKPEDTAVYYCAARDFSTHFSPMDYWGQGPQVTVSS	low polyreactivity
QVQLVESGGGLVQAGGSLRLSCAASGFIFSTNFMGWYRQAPGKERELVADINTGGSTSYADSVKGRFTISRDNAKNTVYLQMNSLKPEDTAVYYCAAVLQYYYLSTDDPYDYWGQGTQVTVSS	low polyreactivity
QVQLVESGGGLVQAGGSLRLSCAASGFIFSTYAMGWYRQAPGKERELVAAISWSGGRTNYADSVKGRFTISRDNAKNTVYLQMNSLKPEDTAVYYCAVGGERGARIGSNHRGSRYDYWGQGTQVTVSS	high polyreactivity

Sequence	polyreactivity (PSR sort gate)
QVQLVESGGGLVQAGGSLRLSCAASGFIFSVYAMGWYRQAPGKERELVAVISTSGGRTYYADSVKGRFTISRDNAKNTVYLQMNSLKPEDTAVYYCAADGFQYTLGNYYWGQGTQVTVSS	high polyreactivity
QVQLVESGGGLVQAGGSLRLSCAASGFIFSWYAMGWYRQAPGKERELVAAIDQSGDSTYYADSVKGRFTISRDNAKNTVYLQMNSLKPEDTAVYYCAAQSYDYWYDYDYWGQGTQVTVSS	high polyreactivity
QVQLVESGGGLVQAGGSLRLSCAASGFIFSWYAMGWYRQAPGKERELVAAISRSGTRTYYADSVKGRFTISRDNAKNTVYLQMNSLKPEDTAVYYCAAAAKSWLFDYWGQGTQVTVSS	high polyreactivity
QVQLVESGGGLVQAGGSLRLSCAASGFIFSYNAMGWYRQAPGKERELVAAISARGGSTYYADSVKGRFTISRDNAKNTVYLQMNSLKPEDTAVYYCNRKQAGHAQGYDYWGQGTQVTVSS	high polyreactivity
QVQLVESGGGLVQAGGSLRLSCAASGFIFSYYAMGWYRQAPGKERELVAAINWSGGSTYYADSVKGRFTISRDNAKNTVFLQMNSLKPEDTAVYYCAAYSSWHPYDYWGQGTQVTVSS	high polyreactivity
QVQLVESGGGLVQAGGSLRLSCAASGFIFSYYAMGWYRQAPGKERELVAAISRNGGRTYYADSVKGRFTISRDNAKNTVYLQMNSLKPEDTAVYYCATGKIREDDYWGQGTQVTVSS	high polyreactivity
QVQLVESGGGLVQAGGSLRLSCAASGFIFSYYAMGWYRQAPGKERELVAAISSSGSRTYYADSVKGRFTISRDNAKNTVYLQMNSLKPEDTAVYYCAARGAAKYGYWGQGTQVTVSS	high polyreactivity
QVQLVESGGGLVQAGGSLRLSCAASGFIFSYYAMGWYRQAPGKERELVAAITQSGGGTYYADSVKGRFTISRDNAKNTVYLQMNSLKPEDTAVYYCAKSRRVYSREGWFHYRAYGYWGQGTQVTVSS	high polyreactivity
QVQLVESGGGLVQAGGSLRLSCAASGFIFSYYTMGWYRQAPGKERELVAAISRRGGSTYYADSVQGRFTISRDNAKNTVYLQRNSLKPEDTAVYYCAAPRDWDAGDYWGQGTQVTVSS	high polyreactivity
QVQLVESGGGLVQAGGSLRLSCAASGFIFTDYAMAWYRQAPGKERELVAAISYGGRTYYADSVKGRFTISRDNAKNTVYLQMNSLKPEDTAVYYCAAEKWDRYSSWSDYWGQGTQVTVSS	high polyreactivity
QVQLVESGGGLVQAGGSLRLSCAASGFIFTDYAMGWYRQAPGKERELVAAISSGGRTYYAVSVKGRFTISRDNAKNTVYIQMNSLKPEDTAVYYCARGGRAEGWGQGTQVTVSS	high polyreactivity
QVQLVESGGGLVQAGGSLRLSCAASGFIFTGNAMGWYRQAPGKERELLAAISSSGTRTYYADSVKGRFTISRDNASNTVYLQMNSLKPEDTAVYYCNKLYLVWNFYSGYDYWGQGTQVTVSS	high polyreactivity
QVQLVESGGGLVQAGGSLRLSCAASGFIFTGYAMGWYRQAPGKERELVAAISWTGDSTYYADSVKGRFTISRDNAKNTVYLQMNSLKPEDTAVYYCAARSYRKPSSRRFDYWGQGTQVTVSS	low polyreactivity
QVQLVESGGGLVQAGGSLRLSCAASGFIFTGYAMGWYRQAPGKERELVASISSGGSTYYADSVKGRFTISRDNAKNTVYLLMNSLKPEDTAVYYCNASVSLGRYPGNEYDYEYWGQGTQVTVSS	low polyreactivity
QVQLVESGGGLVQAGGSLRLSCAASGFIFTIYVMGWYRQAPGKERELVAAISKSVGRTYYADSVKGRFTISRDNAKNTVYLQMNSLKPEDTAVYYCAAVYVKYYGGSYDYWGQGTQVTVSS	high polyreactivity
QVQLVESGGGLVQAGGSLRLSCAASGFIFTLNAMGWYRQAPGKERELVASISSGVSTNYADSVKGRFTISRDNAKNTVYLQMNSLKPEDTAVYYCAARDTGPDGFEGDYWGQGTQVTVSS	low polyreactivity
QVQLVESGGGLVQAGGSLRLSCAASGFIFTLYTMGWYRQAPGKERELVAAIDKNGSTYYADSVKGRFTISRDNAKNTVYLQMNSLKPEDTAVYYCAADDRYRGNREDYWGQGTQVNVSS	low polyreactivity
QVQLVESGGGLVQAGGSLRLSCAASGFIFTPYAMGWYRQAPGKERELVAAIRNTGSTYYADSVKGRFTISRDNAKNTVYLQMNSLKPEDTAVYYCNARRYRWAVVKGGYWGQGTQVTVSS	high polyreactivity
QVQLVESGGGLVQAGGSLRLSCAASGFIFTPYTMGWYSQAPGKERELVAAITDGSSTYYADSVKGRFTISRDNAKNTVYLQMNSLKPEDTALYYCNADGKPPYNSWLYDYWGQGTQVTVTS	low polyreactivity
QVQLVESGGGLVQAGGSLRLSCAASGFIFTQYAMGWYRQAPGKERELVAAISTSGGRTFYADSVKGRFTISRDNAKNTVYLQMNSLKPEDTAVYYCGARPGYLYDYWGQGTQVTVSS	high polyreactivity
